Reference: patent US20140303084
Changes are numbered by the printed parent chain.

Assays:
[1] = tested on: T1, ARAPGKLQCLASYCWLFWTGIA
T1 sequence: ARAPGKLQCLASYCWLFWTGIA

[2] = tested on: T2, C(N-ethylmaleimide)-PEG4-LVPR-PEG4-rRAPGKLTCLASYCWLFWTGIA
T2 sequence: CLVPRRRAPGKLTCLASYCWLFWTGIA

[3] = tested on: T3, CNPRGD-Tyr(OEt)-RC-PEG16-Lys(PEG2-Biotin)-PEG16-rRAPGKLTCLASYCWLFWTGIA
T3 sequence: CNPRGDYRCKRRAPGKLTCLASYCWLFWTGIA

[4] = tested on: T4, HLFGADWLGA RTAPG KLTCLASYCWLFWTGIA
T4 sequence: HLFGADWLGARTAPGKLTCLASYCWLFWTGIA

[5] = tested on: T5, K-k-MeLeu-TCLASYCWLF
T5 sequence: KKLTCLASYCWLF

[6] = tested on: T6, KITCLASYCWLF
T6 sequence: KLTCLASYCWLF

[7] = tested on: T7, KLSCQAGQCWVF
T7 sequence: KLSCQAGQCWVF

[8] = tested on: T8, KLT-Glu-LASY-Dap-WLF
T8 sequence: KLTELASYXWLF

[9] = tested on: T9, KLTCKASYCWLF
T9 sequence: KLTCKASYCWLF

[10] = tested on: T10, KLTCLASY-HCy-WLF
T10 sequence: KLTCLASYXWLF

[11] = tested on: T11, KLTCLASYAWLF
T11 sequence: KLTCLASYAWLF

[12] = tested on: T12, KLTCLASYCLLF
T12 sequence: KLTCLASYCLLF

[13] = tested on: T13, KLTCLASYCWIF
T13 sequence: KLTCLASYCWLF

[14] = tested on: T14, KLTCLASYcWLF
T14 sequence: KLTCLASYCWLF

[15] = tested on: T15, KLTCLATYCWLF
T15 sequence: KLTCLATYCWLF

[16] = tested on: T16, KLTCLGSYCWLF
T16 sequence: KLTCLGSYCWLF

[17] = tested on: T17, LYPRLYTPGS RRAYG KLTCLASYCWLFWTGIA
T17 sequence: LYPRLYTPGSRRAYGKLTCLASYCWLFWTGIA

[18] = tested on: T18, PEG4-RRAPGKLTCLASYCWLFWTGIA
T18 sequence: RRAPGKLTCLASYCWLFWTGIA

[19] = tested on: T19, PQTRDPSSRD RRAPG KLTCLASYCWLFWTGIA
T19 sequence: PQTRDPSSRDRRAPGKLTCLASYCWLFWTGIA

[20] = tested on: T20, PRIRTVGPGSRSASGKLTCFASYCWLFWTGIA
T20 sequence: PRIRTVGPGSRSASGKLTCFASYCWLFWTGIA

[21] = tested on: T21, PRIRTVGPGSRSASGKLTCSASYCWLFWTGIA
T21 sequence: T20 sequence with F20S

[22] = tested on: T22, PRIRTVGPSSRSASGKLTCLASYCWLFWTGIA
T22 sequence: T20 sequence with G9S, F20L

[23] = tested on: T23, PRIRTVSPGSRSASGKLTCLASYCWLFWTGIA
T23 sequence: T20 sequence with G7S, F20L

[24] = tested on: T24, PRIrTVGPGSrSASGKSTCLASYCWLFWTGIA-PEG4-Pra
T24 sequence: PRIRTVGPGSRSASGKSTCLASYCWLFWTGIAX

[25] = tested on: T25, PSIRTVGPGSRSASGKLTCLASYCWLFWTGIA
T25 sequence: T20 sequence with R2S, F20L

[26] = tested on: T26, RRAPGKLT-Dab-LASY-Asp-WLFWTGIA-CONH2
T26 sequence: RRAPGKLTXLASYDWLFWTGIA

[27] = tested on: T27, RRAPGKLTCLASYCWLF FTGVA RSTTATTNTQ
T27 sequence: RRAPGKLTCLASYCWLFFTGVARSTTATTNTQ

[28] = tested on: T28, RRAPGKLTCLASYCWLF RTQIA TPESEYRQQA
T28 sequence: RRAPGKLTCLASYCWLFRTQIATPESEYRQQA

[29] = tested on: T29, RRAPGKLTCLASYCWLF WSGIA PQPPNMRPSV
T29 sequence: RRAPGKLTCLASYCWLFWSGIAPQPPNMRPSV

[30] = tested on: T30, RRAPGKLTCLASYCWLFWK(PEG2-Biotin)GIA
T30 sequence: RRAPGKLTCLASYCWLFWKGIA

[31] = tested on: T31, RRAPGKLTCLASYcWLFWTGIA
T31 sequence: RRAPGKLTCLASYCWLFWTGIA

[32] = tested on: T32, RRAPGKLTCLAsYCWLFWTGIA
T32 sequence: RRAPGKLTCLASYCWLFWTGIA

[33] = tested on: T33, RRAPGkLTCLASYCWLFWTGIA
T33 sequence: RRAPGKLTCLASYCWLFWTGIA

[34] = tested on: T34, RRFVGGSLSQ RRAPG KLTCLASYCWLFWTGIA
T34 sequence: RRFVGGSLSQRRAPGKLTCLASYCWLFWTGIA

[35] = tested on: T35, RRK(PEG2-Biotin)PGKLTCLASYCWLFWTGIA
T35 sequence: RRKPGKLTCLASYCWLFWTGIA

[36] = tested on: T36, RRKPGKLQCLASYCWLFWTGIA
T36 sequence: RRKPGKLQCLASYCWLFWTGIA

[37] = tested on: T37, SKQGRPISPDRRAAGKLT-Asp-LASY-Orn-WLFWTGIA
T37 sequence: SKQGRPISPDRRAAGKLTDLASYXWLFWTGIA

[38] = tested on: T38, SKQGRPISPDRRAAGKLTCLASYCWLFWTGIA-PEG2-K(PEG2-Biotin)
T38 sequence: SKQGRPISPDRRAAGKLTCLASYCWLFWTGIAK

[39] = tested on: T39, SKQGRPISPDrRAAGKLTCLASYCWLFWT
T39 sequence: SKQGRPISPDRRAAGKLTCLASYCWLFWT

[40] = tested on: T40, SKQGRPISSDrRASGKSTCLASYCWLFWTGIA
T40 sequence: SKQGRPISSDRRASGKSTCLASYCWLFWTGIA

[41] = tested on: T41, SRIRTVGPGSRSASGKLTCLASYCWLFWTGIA
T41 sequence: T20 sequence with P1S, F20L

[42] = tested on: T42, TGLLQGRRDE RARPP KLTCLASYCWLFWTGIA
T42 sequence: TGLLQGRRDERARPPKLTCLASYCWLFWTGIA

[43] = tested on: T43, compound 19
T43 sequence: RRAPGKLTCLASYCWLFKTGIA

[44] = tested on: T44, k-MeLeu-TCLAS-(Y-OMe)-CWLF
T44 sequence: KLTCLASYCWLF

[45] = tested on: T45, k-MeLeu-TCLASYCQLF
T45 sequence: KLTCLASYCQLF

[46] = tested on: T46, rRAPGKLTCLASYCWLFWTGIA-PEG16-Lys(PEG2-Biotin)-PEG16-CNPRGD-Tyr(OEt)-RC
T46 sequence: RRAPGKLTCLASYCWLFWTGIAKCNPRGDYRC

[47] = tested on: T47, rRAPGKLTCLASYCWLFWTGIA-PEG16-Lys(PEG2-Biotin)-PEG16-Lys(palmitoyl)
T47 sequence: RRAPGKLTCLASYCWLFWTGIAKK

human Factor IXa
Vmax, FXa generation assay [1]: > 2
Vmax, FXa generation assay; (++) means 1-2 [2]: (++)
Vmax, FXa generation assay [3]: > 3
Vmax, FXa generation assay; (++) means 1-2 [4]: (++)
Vmax, FXa generation assay [5]: > 3
Vmax, FXa generation assay [6]: > 2
Vmax, FXa generation assay [7]: > 2
Vmax, FXa generation assay; (++) means 1-2 [8]: (++)
Vmax, FXa generation assay [9]: > 3
Vmax, FXa generation assay [10]: > 3
Vmax, FXa generation assay; (++) means 1-2 [11]: (++)
Vmax, FXa generation assay [12]: > 2
Vmax, FXa generation assay [13]: > 3
Vmax, FXa generation assay [14]: > 3
Vmax, FXa generation assay; (++) means 1-2 [15]: (++)
Vmax, FXa generation assay [16]: > 2
Vmax, FXa generation assay [17]: > 2
Vmax, FXa generation assay [18]: > 3
Vmax, FXa generation assay [19]: > 3
Vmax, FXa generation assay [20]: > 2
Vmax, FXa generation assay; (++) means 1-2 [21]: (++)
Vmax, FXa generation assay [22]: > 3
Vmax, FXa generation assay [23]: > 3
Vmax, FXa generation assay [24]: > 3
Vmax, FXa generation assay [25]: > 3
Vmax, FXa generation assay [26]: > 2
Vmax, FXa generation assay [27]: > 2
Vmax, FXa generation assay [28]: > 3
Vmax, FXa generation assay [29]: > 3
Vmax, FXa generation assay; (++) means 1-2 [30]: (++)
Vmax, FXa generation assay; (++) means 1-2 [31]: (++)
Vmax, FXa generation assay; (++) means 1-2 [32]: (++)
Vmax, FXa generation assay [33]: > 2
Vmax, FXa generation assay [34]: > 3
Vmax, FXa generation assay; (++) means 1-2 [35]: (++)
Vmax, FXa generation assay [36]: > 2
Vmax, FXa generation assay [37]: > 3
Vmax, FXa generation assay; (++) means 1-2 [38]: (++)
Vmax, FXa generation assay [39]: > 2
Vmax, FXa generation assay [40]: > 3
Vmax, FXa generation assay [41]: > 3
Vmax, FXa generation assay [42]: > 3
Vmax, FXa generation assay with hFIXa [43]: > 2
Vmax, FXa generation assay [44]: > 3
Vmax, FXa generation assay [45]: > 3
Vmax, FXa generation assay [46]: > 3
Vmax, FXa generation assay [47]: > 3
